Measurements reported in patent publication US20250250357A1.
Changes are numbered by the printed parent chain.

B1: F3.80.22-H17 (scFv, not shown: small tags and cut ends)
scFv: EVQLVQSGAEVKKPGATVKISCKVSGYTFTDYEIHWVQQAPGKGLEWMGAFDPEIGGSAYNQKFKDRVTITADKSTDTAYMELSSLRSEDTAVYYCTDYYGSSSGYFDVWGQGTTVTVSSGGGGSGGGGSGGGGSDIVMTQTPLSLPVTPGEPASISCRSSQSLEHNDGNTYLHWFLQKPGQSPQLLIYKVSNRFSGVPDRFSGSGSGTDFTLKISRVEAEDVGVYYCSQSTHVPFTFGQGTKLEIK
B2: F3.80.22-H1 (scFv, not shown: small tags and cut ends)
scFv: DIVMTQTPLSLPVTPGEPASISCRSSQSLEHNNGNTYLHWFLQKPGQSPQLLIYKVSNRFSGVPDRFSGSGSGTDFTLKISRVEAEDVGVYYCSQSTHVPFTFGQGTKLEIKGGGGSGGGGSGGGGSEVQLVQSGAEVKKPGATVKISCKVSGYTFTDYEIHWVQQAPGKGLEWMGAFDPEIGGSAYNQKFKDRVTITADKSTDTAYMELSSLRSEDTAVYYCTDYYGSSSGYFDVWGQGTTVTVSS
B3: F3.80.22-H2 (scFv, not shown: small tags and cut ends)
scFv: B2 scFv with V151A, D204S
B4: F3.80.22-H3 (scFv, not shown: small tags and cut ends)
scFv: B2 scFv with V151A, D204S, Q239T
B5: F3.80.22-H7 (scFv, not shown: small tags and cut ends)
scFv: B2 scFv with N33D, V151A, D204S, Q239T
B6: F3.80.22-H4 (scFv, not shown: small tags and cut ends)
scFv: B2 scFv with V151A, T203S, D204S, Q239T
B7: F3.80.22-H8 (scFv, not shown: small tags and cut ends)
scFv: B2 scFv with N33D, V151A, T203S, D204S, Q239T
B8: F3.80.22-H6 (scFv, not shown: small tags and cut ends)
scFv: B2 scFv with N33D, V151A, D204S
B9: S009-F8-12.13 (antibody, human IgG1, kappa, V domains shown)
VH: QVQLQQPGAELVKPGASVKLSCKASGYTFTSYWMHWVKQRPGQGLEWIGMIHPNSGSTNYNEKFKSKATLTVDKSSSTAYMQLSSLTSEDSAVYYCARRTPIITLVGHWYFDVWGTGTTVTVSS
VL: DIVMTQSHKFMSTSVGDRVSITCKASQDVGTAVAWYQQKPGQSPKLLIYWASTRHTGVPDRFTGSGSGTDFTLTISNVQSEDLADYFCQQYSSYPLTFGAGTKLELKR
B10: S009-F8-15.19 (antibody, human IgG1, kappa, V domains shown)
VH: EFQLQQSGPELVKPGASVKISCKASGYSFTDYNMNWVKQSNGKSLEWIGIINPYYGTTSNNQNFKGKATLTVDQSSSTAYMQLNSLTSDDSAVYYCARWLRRDAMDYWGQGTSVTVSS
VL: B9 VL with Q6P, T22A, T31S, A32S, A51T, L96W, A100G, L106I
B11: S009-F8-4.5 (antibody, human IgG1, kappa, V domains shown)
VH: QVQLQQPGAELVKPGASVKLSCKASGYTFTIYWMHWVKQRPGQGLEWIGMIHPNSGNTNYNEKFKSKATLTVDKSSSTAYMQLSSLTSEDSAVYYCSLIHWYFDVWGTGTTVTVSS
VL: QIVLTQSPAIMSASPGEKVTMTCSASSSVSYMYWYQQKPGSSPRLLIYDTSNLASGVPVRFSGSGSGTSYSLTISRMEAEDAATYYCQQWSSYPLTFGAGTKLELKR
B12: S009-F8-13.8 (antibody, human IgG1, kappa, V domains shown)
VH: EFQLQQSGPELVKPGASVKISCKASGYSFTDYNMNWVKQTNGKSLEWIGIINPNYGTSSYNQKFKGKATLTVDQSSSTAYMQLNSLTSEDSAVYYCARVGRDNSGFDYWGQGTTLTVSS
VL: B11 VL with L95P, A99S, K102E, L105I
B13: S009-F8-29.1 (antibody, human IgG1, kappa, V domains shown)
VH: QVQLQQSGAELARPGASVKMSCKASGYTFISYTMHWVKQRPGQGLEWIGYINPSSGYTKYNQKFKDKATLTADKSSSTAYMQLNSLTSEDSAVYYCARYYSNPDYYAMDYWGQGTSVTVSS
VL: B11 VL with M21I, Y33H, Y35F, S41T, R44K, L46W, D49S, V59A, W90R, A99G
B14: S009-F8-36.12 (antibody, human IgG1, kappa, V domains shown)
VH: EVQLQQSGPELVKPGASVKISCKASGYTFTDYYMNWVKQSHGKSLEWIGDINPNNGGTSYNQKFKGKATLTVDKSSSTAYMELRSLTSEDSAVYYCASWGYGSSSRGYFDYWGQGTTLTVSS
VL: QIVLSQSPAILSASPGEKVTMTCRASSSVSYMHWYQQKPGSSPKPWIYATSNLASGVPARFSGSGSGTSYSLTISRVEAEDAATYYCQQWSSNPWTFGGGTKLEIKR
B15: S009-F8-5.15 (antibody, human IgG1, kappa, V domains shown)
VH: QVQLQQPGTELVKPGASVKLSCKASGYTFTSYWMHWVKQRPGQGLEWIGHSNPSNGGTNYNEKFKSKATLTVDKSSSTAYMQLSSLTSEDSAVYYCARWVRGSNYEYFDVWGTGTTVTVSS
VL: DIVMTQSQKFMSTTVGDRVSIICKASQNVGSAVAWCQQKPGQSPKLLIYSASNRYTGVPDRFTGSGSGTDFTLTISNMQSEDLADYFCQQYSSYPLTFAGGTKLEIKR
B16: S009-F8-24.14 (antibody, human IgG1, kappa, V domains shown)
VH: EFQLQQSGPELVKPGASVKISCKASGYSFTDYNMNWVKLSNGKSLEWIGVIIPNYGTSSYNQKFKGKATLTVDQSSSTAYMQLNSLTSEDSAVYYCARWDNYYGSSLDYWGQGTTLTVSS
VL: B15 VL with I22T, S31T, C36Y, T72I, A99G, G100A, I106L
B17: S009-F8-8.22 (antibody, human IgG1, kappa, V domains shown)
VH: EVQLQQSGPELVKPGASVKMSCKASGYTFTDYIIHWVKQSHGKSLEWIAYIFPNNGGTGYNQKFRGKATLTVNKSSSTAYMELRSLTSEDSAVYYCARWRLRQYFDVWGTGTTVTVSS
VL: B15 VL with T14I, I22T, S31T, C36Y, A99G
B18: S009-F8-31.22 (antibody, human IgG1, kappa, V domains shown)
VH: EVQLVESGGDLVKPGGSLKLSCAASGFTFSTYGMSWVRQTPDKRLEWVATISSGGSYTYYPDSLKGRFTISRDNAKNTLYLQMSSLKSEDTAMYYCARHEGYYYGKDYWGQGTTLTVSS
VL: DIVLTQSPATLSVTPGDSVSLSCRASHSISNNLHWYQQKSHESPRLLIKYASQSISGIPSKFSGSGSGTDFTLSINSVETEDFGMYFCQQTNSWPLTFGAGTKLELKR
B19: S009-F8-33.12 (antibody, human IgG1, kappa, V domains shown)
VH: EVQLQQSGAELVKPGASVKLSCTASAFNIKDYYMHWVKQRTEQGLEWIGRIDPEDGETKYAPKFQGKATITADTSSNTAYLQLSSLTSEDTAVYYCASGSGTGAMDYWGQGTSVTVSS
VL: DIVMTQSQKFMSTSVGDRVSITCKASQNVRTAVGWYQQKPGQSPKALIYLASNRHTGVPDRFTGSGSGTDFTLTISNVQSEDLADYFCLQHWNSPYTFGGGTKLVIKR
B20: S009-F8-9.16 (antibody, human IgG1, kappa, V domains shown)
VH: EVHLQQSGPVLVKPGASVKMSCKASGYTFTDYFMNWVKQSHGKSLEWIGVINPHNGYVNYNQKFQGRATLTVDKSSSTVYMELNSLTSEDSAVYHCARSAESAWFAYWGQRTLVTVSA
VL: DVLMTQTPLSLPVSLGDQVSISCRSSQSIVHVKGNTYLEWYLQKPGQSPELLIYKVSNRFSGVPDRFSGGGSGTDFTLKISRVEPEDLGVYYCFQGSHLPYTFGGGTKLEIKR
B21: S009-F8-18.9 (antibody, human IgG1, kappa, V domains shown)
VH: EFQLQQSGPELVKPGASVKISCKASGYSFTDYNMNWVKQSNGKSLEWIGIINPNYGTTSYNQKFKGRATLTVDQSSSTAYVQLNSLTSEDSAVYYCARGGYDNEAMDYWGQGTSVTVSS
VL: QIVLTQSPAIMSASPGEKVTMTCSASSSVSYMHWYQQKSGTSPKRWIYDTSKLASGVPARFSGSGSGTSYSLTISSMEAEDAATYYCQQWSSNPPTFGAGTKLELKR
B22: S009-F8-19.21 (antibody, human IgG1, kappa, V domains shown)
VH: B21 VH with A24T, I50V, S59G, R67K, V81M, N103G, Q111H
VL: B21 VL with S30N, N93Y, A99G, L105I
B23: S009-F8-27.1 (antibody, human IgG1, kappa, V domains shown)
VH: EVQLVESGGGLVKPGGSLKLSCAASGFTFSSYAMSWVRQTPEKRLEWVATISDGGNYTYYPDNVKGRFTISRDNAKNNLYLQMSHLKSEDTAMYYCAGDRGYPYAMDSWGQGTSVTVSS
VL: NIMMTQSPSSLAVSAGEKVTMSCKSSQSVLYSSNQKNYLAWYQQKPGQSPKLLIYWASTRESGVPDRFTGSGSGTDFTLTISNVHAEDLAVYYCHQYLSSLTFGAGTKLELKR
B24: S009-F8-22.23 (antibody, human IgG1, kappa, V domains shown)
VH: QVQLKQSGPGLVQPSQSLSITCTVSGFSLFSYGVHWVRQSPGKGLEWLGVIWSGGSTDYNAAFISRLSISKDNSKSQVFFKMNSLQADDTAMYYCARNGGSMITTLYYAMDYWGQGTSVTVSS
VL: DVVMTQTPLSLPVSLGDQASISCRSSQSLVHSYGNTYLHWYLQKPGQSPKLLIYKVSNRFSGVPDRFSGSGSGTDFTLKISRVEAEDLGVYFCSQSTHIPFTFGGGTKLEIKR
B25: S009-F8-32.3 (antibody, human IgG1, kappa, V domains shown)
VH: QVQLKESGPGLVAPSQSLSITCTVSGFSLSSYAISWVRQPPGKGLEWLGVIWTGGGTNYNSALKSRLSISKDNSKSQVFLKMNSLQTDDTARFYCARNNYGRLDYAMDYWGQGTSVTVSS
VL: B24 VL with S32G, Y33N, A85T, I99V, G105S

target: human MSLN on OVCAR3 tumor cells (human) (UniProt Q13421); test: FACS, OVCAR3 cells
Sequence (Q13421 other isoform, or with tags, fused parts or gaps): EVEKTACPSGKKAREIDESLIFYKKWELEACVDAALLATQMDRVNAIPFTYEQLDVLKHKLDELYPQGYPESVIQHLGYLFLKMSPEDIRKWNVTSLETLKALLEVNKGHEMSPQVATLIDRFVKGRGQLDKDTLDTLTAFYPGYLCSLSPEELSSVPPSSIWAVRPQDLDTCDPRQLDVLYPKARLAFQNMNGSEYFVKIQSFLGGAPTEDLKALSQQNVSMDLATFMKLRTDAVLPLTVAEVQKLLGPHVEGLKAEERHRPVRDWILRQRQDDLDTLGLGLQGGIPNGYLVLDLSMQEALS

| Maximum MFI [MFI] | Binder |
| --- | --- |
| 456 | B1 |
| 471 | B2 |
| 512 | B3 |
| 502 | B4 |
| 479 | B5 |
| 505 | B6 |
| 502 | B7 |
| 473 | B8 |

target: monkey MSLN full-length protein expressed on HEK293T cells (HEK293T-monkey MSLN) (monkey); test: FACS on HEK293T-monkey MSLN cells

| EC50 [nM] | Maximum mean fluorescence intensity | Binder |
| --- | --- | --- |
| 0.08 | 21500 | B9 |
| 0.39 | 28200 | B10 |
| 0.64 | 35000 | B11 |
| 0.15 | 20500 | B12 |
|  | 80 | B13 |
|  | 173 | B14 |
| 0.18 | 20200 | B15 |
| 0.52 | 105000 | B16 |
| 0.36 | 112000 | B17 |
|  | 3390 | B18 |
| 0.64 | 106000 | B19 |
|  | 348 | B20 |
| 0.81 | 24900 | B21 |
| 0.3 | 24900 | B22 |
| 2.05 | 31300 | B23 |
| 1.09 | 114000 | B24 |
| 0.69 | 112000 | B25 |
